Data on 64 variants can be found in the RNAGym collection of RNA variant scans (doi:10.7554/elife.80360).

B1: HDV Ribozyme (parent)
chain: GGCCGGCAUGGUCCCAGCCUCCUCGCUGGCGCCGGCUGGGCAACAUUCCGAGGGGACCGUCCCCUCGGUAAUGGCGAAUGGGACCCA

Variants of B1 are the subject of this data set. In words: self-cleavage, relative activity (ratio to wild type); higher = more cleavage; co-transcriptional.
In the case of GGCCGGCAUGGUCCCAGGCUCCUCGCUGGCGCCGGCUGGGCAACAUUCCGAGGGGACCGUCCCCUCGGUAAUGGCGAAUGAGACCCA, the self-cleavage came to 0.277. Take GGCCGGCAUGGUCCCAGCCUCCUCGCUGACGCCGGCUGGGCAACAUUCCGAGGGGACCGUCCCCUUGGUAAUGGCGAAUGGGACCCA: the self-cleavage came out at 0.114. The result for GGCCGGCAUGGUCCCAGCCUCCUCCCUGGCGCCGGCUGGGCAACAUUCCGAGGGGAUCGUCCCCUCGGUAAUGGCGAAUGGGACCCA reads 0.219; that for GGCCGGCAUGGUCCCAGCCUCCUCCCUGGCGCCGGCUGGGCAACAUUCCGAGGGGACCGUCCCCUCGGUAUUGGCGAAUGGGACCCA, 0.19. The result for GUCCGGCAUGGUCCCAGCCUCCUCGCUGGCGCCGGCUGGGCAACAUACCGAGGGGACCGUCCCCUCGGUAAUGGCGAAUGGGACCCA reads 0; that for GGCCGGCAUGGUCCCAGCCUCCUCGCUGGCGCCGGCUGGGCAACAUUCCGAGGGGACAGGCCCCUCGGUAAUGGCGAAUGGGACCCA, 0.831; that for GGCCGGCAUGGUCCCAGCCUCCUCGCUGGCGCCGUCUGGGCAACAUUCCGAGGGGACCGUCCCCUCGGUAAUGGCGAAGGGGACCCA, 0.0426.

With GGCCGGCAUGGUCCCAGCCUCCUCGCUGGCGCCGGCUGGGCAACAUUCCGAGGGGACCGUCCGCUCGGUAAUGGCGGAUGGGACCCA, the self-cleavage turned out to be 0.268. The result for GGCCGGCAUGGUCGCAGCCUCCUCGCUGGCGCCGGCUGGGCAACAUUCCGAGGGGACCGUCCCCUCGGUAAUGGCGAGUGGGACCCA reads 0.317; that for GGCCGGCAUGGUCCCAGCCUCCGCGCUGGCGCCGGCUGGGCAACAUUCCGAGGGGACCGUCCCCUCGGUAAUGGCGAAUGGGACCAA, 0.607; that for GGCCGGCAUGGUCCCAGCCUCCUCGCUGGCGCCGGCUGGGCUACAUUCCGAGGGGACCGUCCCCUCGGUAAUGGCGAAUGGUACCCA, 0.102.

In the case of GGCCGGCAUGUUCCCAGCCUCCUCGCUGGCGCCGGCUGGGCAACAUUCCGAGGGGACCGUCCCCUCGGUAGUGGCGAAUGGGACCCA, the self-cleavage was determined as 0.302.

Take GGCCGGCAUGCUCCCAGCCUCCUCGCUGGCGCCGGCUGGGCAACAUUCCGAGGGUACCGUCCCCUCGGUAAUGGCGAAUGGGACCCA: the self-cleavage stood at 0.305. The result for GGCCGGCAUGGUCCCAGCCUCCUCGCUGGCGCCGGCUGGGCAACAUCCCGAGGGGACCGUCCCCUCGGUUAUGGCGAAUGGGACCCA reads 0.864. Turning to GGCCGGCAUGGUCCCAGCCUCCUCGCUGGCCCCGGCUGGGCAACAUUUCGAGGGGACCGUCCCCUCGGUAAUGGCGAAUGGGACCCA, the self-cleavage worked out at 0.475. The result for GGCCGGCAUGGUCCCAGCCUCCUCGCUGGCGCCGGCUGGGCAACAUUCCGGGGGGACCGUCCCCUCGGUAAUGGCGAAUGAGACCCA reads 0.285; that for GGCCGGCAUAGUCCCAGCCUCCUCGCUGGCGCCGGCAGGGCAACAUUCCGAGGGGACCGUCCCCUCGGUAAUGGCGAAUGGGACCCA, 0.0944; that for GGCCGGCAUGGUCCCAGCCUCCUCGCUGGCGCCGGCUGGGCAACAUUCCGAGGGGACCGUCCCCUCGGUAACGGCGACUGGGACCCA, 0.229. Then GGCCGGCAUGGUCCCAGCCUCCUCGCUGGCGCCUGCUGGGCAAGAUUCCGAGGGGACCGUCCCCUCGGUAAUGGCGAAUGGGACCCA, with 0.173; and GGCCGGCAUGGUCCCAGCCUCCUCGCUGGCGCCGGCUGGGCACCAUUCCGAGGGGACUGUCCCCUCGGUAAUGGCGAAUGGGACCCA, with 0.671. The result for GGCCGGCAUGGUCCCAGCCUCCUCGCUGGCGCCGGCUGGGCAACAUUCCGAGGGGACCGUCCCCUCGGUUAUGGCGAAUGGGACCCA reads 0.953; that for GGCCGGCAUGGUCCCAGCCUCCUCGCUGGCGCCGGCUGGGCAACAUUCCGAGGGGACCGUCCCCUCGAUAAUGGCGAAUGGGACCUA, 0.965; that for GGCCGGCAUGGUCCCAGCCUCCUCGCUGGCGCAGGCUGGGCAACAUUCCGAGGGGACCGUCCCCUCGGUAAUGACGAAUGGGACCCA, 0.0219. Consider GGCCGGCAUUGUCCCAGCCUCCUCGCUGGCGCCGGCUGGGCAACAUUCCGAGGGGACCGACCCCUCGGUAAUGGCGAAUGGGACCCA, for which the self-cleavage turned out to be 0.635. As to GGCCGGCAUGGUCCCAGCUUCCUCGCUGGCGCCGGCUGGGCAACAUACCGAGGGGACCGUCCCCUCGGUAAUGGCGAAUGGGACCCA, the self-cleavage amounted to 0.191. As to GGCCGGCAUGGUCCCAGCCUCCUCGCUGGCGCCGGCUGGGCUUCAUUCCGAGGGGACCGUCCCCUCGGUAAUGGCGAAUGGGACCCA, the self-cleavage was found to be 0.604. Then GGCCGGCAUGGUCCCAGCCUCCUCGCUGGCGCCGGCUGAGCAACAUUCCGAGGGGACCGUCCCUUCGGUAAUGGCGAAUGGGACCCA, with 0.484; and GGCCGGCAUGGUCCCAGCCUCCUCGCUGGCGCCGGCUGGGCAACAUUCCGAGGGGACCGUCCCAUCGGUAAUCGCGAAUGGGACCCA, with 0.256. Then GGCCGGCAUGGUCCCAGCCUCCUCGCUGGCGCCGGCUGGGCAAUAUUCCGAGGGGACCGUCCCCUCGGUAGUGGCGAAUGGGACCCA, with 0.95; and GGCCGGCAUGGUCCCAGCCUCCUCGCUGGCGCCGGCUGGCCAACAUUCCGAAGGGACCGUCCCCUCGGUAAUGGCGAAUGGGACCCA, with 0.247; and UGCCGGCAUGGUCCCAGCCUCCUCGCUGGCGCCGGGUGGGCAACAUUCCGAGGGGACCGUCCCCUCGGUAAUGGCGAAUGGGACCCA, with 0.306. As to GCCCGGCAUGGUCCCAGCCUCCUCGCUGGCGCCGGCUGGGCAACAUUCCGAGGGGACGGUCCCCUCGGUAAUGGCGAAUGGGACCCA, the self-cleavage amounted to 0.13. Then GGCCGGCAUGGUCCCAGCCUCCUCGCUGGCGCCGGCUGGGCAACAUUCCGACGGGACCGUCCCCUCGGUAAUGGCGAAUGGGACCCC, with 0.85; and GGCCGGCAUGGUCCCAGCCUCCUCGCUGGCGCCGGCUGGGCAACAUUCCCAGGGGACCGUCCCCUCGGUAAUGGCGAAGGGGACCCA, with 0.723; and GGCCGCCAUGGUCCCAGCCUCCUCGCUGGCGCCGGCUGGGCAACAUUCCGAGGGGACCGUCUCCUCGGUAAUGGCGAAUGGGACCCA, with 0.193. Then GGCCGGCAUGGUCGCAGCCUCCUCGCUGGCGCCGGCUGGGCAACAUUCCGCGGGGACCGUCCCCUCGGUAAUGGCGAAUGGGACCCA, with 0.712; and GGCCGGCAUGGCCCCAGCCUCCUCGCUGGCGCCGGCUGGGCAAAAUUCCGAGGGGACCGUCCCCUCGGUAAUGGCGAAUGGGACCCA, with 0.252; and GGCCGGCAUAGUCCCAGCCUCCUCGCUGGCGCCGGCUGGGCAACCUUCCGAGGGGACCGUCCCCUCGGUAAUGGCGAAUGGGACCCA, with 0.219. The result for GGCCGGCAUGGUCCCAGCCGACUCGCUGGCGCCGGCUGGGCAACAUUCCGAGGGGACCGUCCCCUCGGUAAUGGCGAAUGGGACCCA reads 0.142; that for GGCCGGCAUGGUCCCAGCCUCCUCGCUGGCGCAGGCUGGGCAACAUUCCGAGGGGUCCGUCCCCUCGGUAAUGGCGAAUGGGACCCA, 0.475. On to GGCCGGCAUGGUCCCAGCCUCCUCGCUGGCGCCGGCUGGGCAACAUUCCGAGGCGACCGUCCCCUCUGUAAUGGCGAAUGGGACCCA, for which the self-cleavage is 0.783.

For the variant GGCCGGCAUGGUCCCAGCCUCCUCGCUGGCGCCGUCUGGGCAACAUUCCGAGGGGACCAUCCCCUCGGUAAUGGCGAAUGGGACCCA, the self-cleavage came out at 0.415. The result for GGUCGGCAUGGUCCCAGCCUCCUCGCUGGCGCCGGCUGGGCAACAUUCCGAGGGGACCGUCCCCUCGGUAAUGGCGAAUGUGACCCA reads 0.187; that for GGCCGGCAUGGUCCCAGCCUCUUCGCUGGCGCCGCCUGGGCAACAUUCCGAGGGGACCGUCCCCUCGGUAAUGGCGAAUGGGACCCA, 0. With GGCCGGCAUGGUCCCAGCCUCCUCGCUGGCGCCGGCUUGGCAACAUUCCGAGGGGACCGUCCCCUCGGUAAUGGCGAACGGGACCCA, the self-cleavage turned out to be 0.112. GGCCGGCAUGGUCCCAGCCUCCUCGCUGGCGCCGGCUGGGCAACAUUUCGAGGGGACCGUCCCCUCGGUAAUGGCGAAUGGGCCCCA: the self-cleavage is 0.906. The result for GGCCGGCAUGGUCCCAGCCUCCUCGCUGGCGCCGGCUGGGCGACAUUCCGAGGGGACCGUCCCCUCGGUAAUGGCGAAUGGGACCCA reads 0.562. The result for GGCCGGCAUGGUCCCAGCCUCCUCGCUGGCCCCGGCUGGGCAACAUUCCGAGUGGACCGUCCCCUCGGUAAUGGCGAAUGGGACCCA reads 0.496; that for GGCCGGCAUGGUCCCAGCCUCCUCGCUGGCCCCGGCUGGGCAACAUUCCGAGGGGACCGUCCCCUCGGUAAUGGCGAAUGGGGCCCA, 0.219; that for GGCCGGCAUGGUCCCAGCCUCCUUGCUGGCGCCGGCUGGGCAACAUUCCGAGGGGAUCGUCCCCUCGGUAAUGGCGAAUGGGACCCA, 0.538. The result for GGCCGGCAUGGUCCCAGCCUCCUCGCUGGCGCCGGCUCGGCCACAUUCCGAGGGGACCGUCCCCUCGGUAAUGGCGAAUGGGACCCA reads 0.104; that for GCCCGGCAUGGUCCCAGCCUCCUCGCUGGCCCCGGCUGGGCAACAUUCCGAGGGGACCGUCCCCUCGGUAAUGGCGAAUGGGACCCA, 0.0237; that for GGCCGGCUUGGUCCCAGCCUCCUCGCUGGCGCCGGCUGGGCAACAUUACGAGGGGACCGUCCCCUCGGUAAUGGCGAAUGGGACCCA, 0.875. Regarding GGCCGGCAUGGUCCCAGCCUCCUCGCUGGCGCCGGCUGGGCAACAUUCCGAGGGGACCGUCCCCUCGGUAAUGGCGAUUCGGACCCA, the self-cleavage came out at 0.174. The result for GGCCGGCAUGGUCCCAGCCUCCUCGCUGGCGCCGGCUGGGAAACAUUCCGAGGGGACCGUCCCCUCGGUAGUGGCGAAUGGGACCCA reads 0.91; that for GGCCGGCAUGAUCCCAGCCUCCUCGCUGGCGCCGGCUGGGCAACAUUCCGGGGGGACCGUCCCCUCGGUAAUGGCGAAUGGGACCCA, 0.374. The result for GGCCGGCAUGGUCCCAGCCUCCUCGCUGGGGCCGGCUGGGCAACACUCCGAGGGGACCGUCCCCUCGGUAAUGGCGAAUGGGACCCA reads 0.0831; that for GGCCGGCAUGGUCUCAGCCUCCUCGCUGGCGCCGGCUGGGCAACAUUCCGAGGGGACCGGCCCCUCGGUAAUGGCGAAUGGGACCCA, 0.772; that for GGCCAGCAUGGUCCCAGCCUCCUCGCCGGCGCCGGCUGGGCAACAUUCCGAGGGGACCGUCCCCUCGGUAAUGGCGAAUGGGACCCA, 0.0594.

As to GGCCGGCAUGGUCCCAGCCUCCUCGCUGGCGCCGGCUGGGCAACAUUCCGAGGGGACCAUCCCCUCGGUAAUGGCGAAUGGAACCCA, the self-cleavage is 0.466. On to GACCGGCAUGGUCCCAGCCUCCUCGCUGGCGCCGGCUGGGCAACAUUCCGAGGGGACCGUCCCGUCGGUAAUGGCGAAUGGGACCCA, for which the self-cleavage came to 0.0923. As to GGCCGGCAUGGUCCCAGCCUCCUCCCUGGCGCCGGCUGGGCAACAUUCCGAGGGGACCAUCCCCUCGGUAAUGGCGAAUGGGACCCA, the self-cleavage was found to be 0.0791. As to GGCCGGCAUGGUCCCAGCCUCCUCCCUGGCGCCGGCUGGGCAACAUUCCGAGGGGACCGUCCCCUCGGUAAUGGCGAAUCGGACCCA, the self-cleavage was 0.17.

Consider GGCCGGCAUGGUCCCAGCCUCCUCGCUGGCGCCGGCUGGGCAACAUUCCGAGGGGAGCGUCCCCUCGGUAAUGGCGAAUGGGACACA, for which the self-cleavage is 0.935.
